Measured values from patent publication US20190046652A1 (AADIGEN, published 2019).
Ends that are not written are not given here.

B1: PC4, also noted PC4D (peptide)
peptide: RWTEWEWW
modifications: also: cyclic version, linkage not given here
B2: PC6, also noted PC6D (peptide)
peptide: KWETWWET
B3: C4 (peptide)
peptide: KKQVRMAHLVLT
modifications: not fully specified
B4: C2 (peptide)
peptide: KKQVLAMEHLVT
modifications: not fully specified
B5: VEPEP-3a (peptide)
peptide: XKWFERWFREWPRKRR
HELM: PEPTIDE1{[ac].[bAla].K.W.F.E.R.W.F.R.E.W.P.R.K.R.R.[SCCN[*:1]]}$$$$V2.0
SMILES: CC(=O)NCCC(=O)N[C@@H](CCCCN)C(=O)N[C@@H](Cc1c[nH]c2ccccc12)C(=O)N[C@@H](Cc1ccccc1)C(=O)N[C@@H](CCC(=O)O)C(=O)N[C@@H](CCCNC(=N)N)C(=O)N[C@@H](Cc1c[nH]c2ccccc12)C(=O)N[C@@H](Cc1ccccc1)C(=O)N[C@@H](CCCNC(=N)N)C(=O)N[C@@H](CCC(=O)O)C(=O)N[C@@H](Cc1c[nH]c2ccccc12)C(=O)N1CCC[C@H]1C(=O)N[C@@H](CCCNC(=N)N)C(=O)N[C@@H](CCCCN)C(=O)N[C@@H](CCCNC(=N)N)C(=O)N[C@@H](CCCNC(=N)N)C(=O)NCCS
notes: Synthetic cell-penetrating peptide

Experiments:
HIV integrase = HIV integrase (HIV-1-LAI, UniProt P03367 1160-1447); assay: cell-based or functional assay
CDK4/cyclin D complex = CDK4/cyclin D complex (UniProt P11802 2-303); assay: cell-based or functional assay
cdk2/cyclin A complex = cdk2/cyclin A complex (UniProt P24941 1-298; P20248 1-432); assay: cell-based or functional assay
C2 = target: B4; assay: fluorescence titration, curve fitting
PC4, also noted PC4D = target: B1; assay: fluorescence titration, curve fitting
C4 = target: B3; assay: fluorescence titration, curve fitting

Sequence of CDK4/cyclin D complex (P11802 2-303, one chain of several): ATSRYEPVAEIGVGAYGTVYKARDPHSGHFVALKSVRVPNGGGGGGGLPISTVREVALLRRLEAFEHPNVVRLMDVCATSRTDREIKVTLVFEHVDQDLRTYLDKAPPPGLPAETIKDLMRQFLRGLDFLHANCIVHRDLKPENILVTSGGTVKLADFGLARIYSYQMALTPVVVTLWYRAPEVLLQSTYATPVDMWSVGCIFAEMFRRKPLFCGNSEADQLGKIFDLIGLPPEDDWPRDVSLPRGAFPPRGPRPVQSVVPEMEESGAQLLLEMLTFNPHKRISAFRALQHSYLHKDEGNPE

## B1
HIV integrase
  IC50, antiviral activity (RT activity in supernatants of HIV-1 LAI infected PBMC), peptide with VEPEP-3 carrier: 0.12 nM

## B2
HIV integrase
  IC50, antiviral activity (RT activity in supernatants of HIV-1 LAI infected PBMC), peptide with VEPEP-3 carrier: 0.09 nM

## B3
CDK4/cyclin D complex
  IC50, proliferation of HEK-2 cells (C4 delivered by VEPEP-3): 78 nM
  IC50, proliferation of Hela cells (C4 delivered by VEPEP-3): 35 nM
  IC50, proliferation of MCF7 cells (C4 delivered by VEPEP-3): 58 nM

## B4
cdk2/cyclin A complex
  IC50, proliferation of HEK-2 cells (C2 delivered by VEPEP-3): 102 nM
  IC50, proliferation of Hela cells (C2 delivered by VEPEP-3): 37 nM

## B5
C2
  binding result: binds
PC4, also noted PC4D
  Kd: 50 to 100 nM
C4
  binding result: binds
